Assay results as given in publication doi:10.1101/430835 (bioRxiv, 2019).
Several values for one entry are separate records, joined by “and”; a condition that tells them apart may be missing. Equal values may be shown once.

B1: Uncoupling protein 2 (UCP2) (natural protein, human, UniProt P55851 1-309, looked up)
chain: MVGFKATDVPPTATVKFLGAGTAACIADLITFPLDTAKVRLQIQGESQGPVRATASAQYRGVMGTILTMVRTEGPRSLYNGLVAGLQRQMSFASVRIGLYDSVKQFYTKGSEHASIGSRLLAGSTTGALAVAVAQPTDVVKVRFQAQARAGGGRRYQSTVNAYKTIAREEGFRGLWKGTSPNVARNAIVNCAELVTYDLIKDALLKANLMTDDLPCHFTSAFGAGFCTTVIASPVDVVKTRYMNSALGQYSSAGHCALTMLQKEGPRAFYKGFMPSFLRLGSWNVVMFVTYEQLKRALMAACTSREAPF
B2: bovine ADP/ATP carrier protein isoform 1 (AAC1) (natural protein)
chain: SDQALSFLKDFLAGGVAAAISKTAVAPIERVKLLLQVQHASKQISAEKQYKGIIDCVVRIPKEQGFLSFWRGNLANVIRYFPTQALNFAFKDKYKQIFLGGVDRHKQFWRYFAGNLASGGAAGATSLCFVYPLDFARTRLAADVGKGAAQREFTGLGNCITKIFKSDGLRGLYQGFNVSVQGIIIYRAAYFGVYDTAKGMLPDPKNVHIIVSWMIAQTVTAVAGLVSYPFDTVRRRMMMQSGRKGADIMYTGTVDCWRKIAKDEGPKAFFKGAWSNVLRGMGGAFVLVLYDEIKKFV

Target: the molecule itself
Assay: native gel or EMSA

Row | Protein | stoichiometry N
1 | B1 | 2 and 4
2 | B2 | 2
